Our source for the Kd values is paper PMC3074162.

T1: ParB 65-139 (RHH domain) (Leifsonia xyli subsp. cynodontis …, UniProt Q6EEF9 65-139)
T1 sequence: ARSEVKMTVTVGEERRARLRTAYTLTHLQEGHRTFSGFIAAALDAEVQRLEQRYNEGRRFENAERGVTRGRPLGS

B1: R3-18-16A (dsDNA)
DNA 1: GGAATAGGTGGAAAAACC
DNA 2: GGTTTTTCCACCTATTCC
B2: R3-18-4T (dsDNA)
DNA 1: GGATTAGGTGGAAAAGCC
DNA 2: GGCTTTTCCACCTAATCC
B3: R3-18-15G (dsDNA)
DNA 1: GGAATAGGTGGAAAGGCC
DNA 2: GGCCTTTCCACCTATTCC
B4: R3-18-1C (dsDNA)
DNA 1: CGAATAGGTGGAAAAGCC
DNA 2: GGCTTTTCCACCTATTCG
B5: R3-18-11T (dsDNA)
DNA 1: GGAATAGGTGTAAAAGCC
DNA 2: GGCTTTTACACCTATTCC
B6: R3-18-10T (dsDNA)
DNA 1: GGAATAGGTTGAAAAGCC
DNA 2: GGCTTTTCAACCTATTCC
B7: R3-18-14C (dsDNA)
DNA 1: GGAATAGGTGGAACAGCC
DNA 2: GGCTGTTCCACCTATTCC
B8: R3-18-9A (dsDNA)
DNA 1: GGAATAGGAGGAAAAGCC
DNA 2: GGCTTTTCCTCCTATTCC
B9: R3-18-8A (dsDNA)
DNA 1: GGAATAGATGGAAAAGCC
DNA 2: GGCTTTTCCATCTATTCC
B10: R3-18-13C (dsDNA)
DNA 1: GGAATAGGTGGACAAGCC
DNA 2: GGCTTGTCCACCTATTCC
B11: R3-18-3T (dsDNA)
DNA 1: GGTATAGGTGGAAAAGCC
DNA 2: GGCTTTTCCACCTATACC
B12: R3-18-3C (dsDNA)
DNA 1: GGCATAGGTGGAAAAGCC
DNA 2: GGCTTTTCCACCTATGCC
B13: R3-18-12T (dsDNA)
DNA 1: GGAATAGGTGGTAAAGCC
DNA 2: GGCTTTACCACCTATTCC
B14: R3-18-8C (dsDNA)
DNA 1: GGAATAGCTGGAAAAGCC
DNA 2: GGCTTTTCCAGCTATTCC
B15: R3-18-12C (dsDNA)
DNA 1: GGAATAGGTGGCAAAGCC
DNA 2: GGCTTTGCCACCTATTCC
B16: R3-18-4G (dsDNA)
DNA 1: GGAGTAGGTGGAAAAGCC
DNA 2: GGCTTTTCCACCTACTCC
B17: R3-18-12G (dsDNA)
DNA 1: GGAATAGGTGGGAAAGCC
DNA 2: GGCTTTCCCACCTATTCC
B18: R3-18-13G (dsDNA)
DNA 1: GGAATAGGTGGAGAAGCC
DNA 2: GGCTTCTCCACCTATTCC
B19: R3-18-14G (dsDNA)
DNA 1: GGAATAGGTGGAAGAGCC
DNA 2: GGCTCTTCCACCTATTCC
B20: R3-18-2C (dsDNA)
DNA 1: GCAATAGGTGGAAAAGCC
DNA 2: GGCTTTTCCACCTATTGC
B21: R3-18-16C (dsDNA)
DNA 1: GGAATAGGTGGAAAACCC
DNA 2: GGGTTTTCCACCTATTCC
B22: R3-18-17G (dsDNA)
DNA 1: GGAATAGGTGGAAAAGGC
DNA 2: GCCTTTTCCACCTATTCC
B23: R3-18-5A (dsDNA)
DNA 1: GGAAAAGGTGGAAAAGCC
DNA 2: GGCTTTTCCACCTTTTCC
B24: R3-18-7T (dsDNA)
DNA 1: GGAATATGTGGAAAAGCC
DNA 2: GGCTTTTCCACATATTCC
B25: R2-18 (dsDNA)
DNA 1: AGTAAAGTAGGAATAGGT
DNA 2: ACCTATTCCTACTTTACT
B26: R3-18-11A (dsDNA)
DNA 1: GGAATAGGTGAAAAAGCC
DNA 2: GGCTTTTTCACCTATTCC
B27: R4-20 (dsDNA)
DNA 1: TGGAAAAGCCAGAAACAGTG
DNA 2: CACTGTTTCTGGCTTTTCCA
B28: R3-18-9G (dsDNA)
DNA 1: GGAATAGGGGGAAAAGCC
DNA 2: GGCTTTTCCCCCTATTCC
B29: R3-18-3G (dsDNA)
DNA 1: GGGATAGGTGGAAAAGCC
DNA 2: GGCTTTTCCACCTATCCC
B30: R1-18 (dsDNA)
DNA 1: TGGCTATCCAGTAAAGTA
DNA 2: TACTTTACTGGATAGCCA
B31: R3-18-2A (dsDNA)
DNA 1: GAAATAGGTGGAAAAGCC
DNA 2: GGCTTTTCCACCTATTTC
B32: R3-18-15C (dsDNA)
DNA 1: GGAATAGGTGGAAACGCC
DNA 2: GGCGTTTCCACCTATTCC
B33: R3-18-1T (dsDNA)
DNA 1: TGAATAGGTGGAAAAGCC
DNA 2: GGCTTTTCCACCTATTCA
B34: R3-18-17A (dsDNA)
DNA 1: GGAATAGGTGGAAAAGAC
DNA 2: GTCTTTTCCACCTATTCC
B35: R3-18-1A (dsDNA)
DNA 1: AGAATAGGTGGAAAAGCC
DNA 2: GGCTTTTCCACCTATTCT
B36: R3-18-5C (dsDNA)
DNA 1: GGAACAGGTGGAAAAGCC
DNA 2: GGCTTTTCCACCTGTTCC
B37: R3-18-11C (dsDNA)
DNA 1: GGAATAGGTGCAAAAGCC
DNA 2: GGCTTTTGCACCTATTCC
B38: R4-16 (dsDNA)
DNA 1: GAAAAGCCAGAAACAG
DNA 2: CTGTTTCTGGCTTTTC
B39: R3-18-18A (dsDNA)
DNA 1: GGAATAGGTGGAAAAGCA
DNA 2: TGCTTTTCCACCTATTCC
B40: R3-18-16T (dsDNA)
DNA 1: GGAATAGGTGGAAAATCC
DNA 2: GGATTTTCCACCTATTCC
B41: R3-18-6T (dsDNA)
DNA 1: GGAATTGGTGGAAAAGCC
DNA 2: GGCTTTTCCACCAATTCC
B42: R3-18-13T (dsDNA)
DNA 1: GGAATAGGTGGATAAGCC
DNA 2: GGCTTATCCACCTATTCC
B43: R3-18-5G (dsDNA)
DNA 1: GGAAGAGGTGGAAAAGCC
DNA 2: GGCTTTTCCACCTCTTCC
B44: R3-18-6G (dsDNA)
DNA 1: GGAATGGGTGGAAAAGCC
DNA 2: GGCTTTTCCACCCATTCC
B45: R3-18-7C (dsDNA)
DNA 1: GGAATACGTGGAAAAGCC
DNA 2: GGCTTTTCCACGTATTCC
B46: R3-18-15T (dsDNA)
DNA 1: GGAATAGGTGGAAATGCC
DNA 2: GGCATTTCCACCTATTCC
B47: R3-18-7A (dsDNA)
DNA 1: GGAATAAGTGGAAAAGCC
DNA 2: GGCTTTTCCACTTATTCC
B48: R3-18-17T (dsDNA)
DNA 1: GGAATAGGTGGAAAAGTC
DNA 2: GACTTTTCCACCTATTCC
B49: R3-18-18T (dsDNA)
DNA 1: GGAATAGGTGGAAAAGCT
DNA 2: AGCTTTTCCACCTATTCC
B50: R3-18-4C (dsDNA)
DNA 1: GGACTAGGTGGAAAAGCC
DNA 2: GGCTTTTCCACCTAGTCC
B51: R3-18-9C (dsDNA)
DNA 1: GGAATAGGCGGAAAAGCC
DNA 2: GGCTTTTCCGCCTATTCC
B52: R3-18-2T (dsDNA)
DNA 1: GTAATAGGTGGAAAAGCC
DNA 2: GGCTTTTCCACCTATTAC
B53: R3-18-8T (dsDNA)
DNA 1: GGAATAGTTGGAAAAGCC
DNA 2: GGCTTTTCCAACTATTCC
B54: R3-18-6C (dsDNA)
DNA 1: GGAATCGGTGGAAAAGCC
DNA 2: GGCTTTTCCACCGATTCC
B55: R3-18-14T (dsDNA)
DNA 1: GGAATAGGTGGAATAGCC
DNA 2: GGCTATTCCACCTATTCC

This series addresses T1, ParB 65-139 (RHH domain). As to the kind of experiment: ITC. (ITC needs no label: the signal is the heat of the interaction.)
As for B1, binding was put at a Kd of 22 ± 9 nM.

Consider B2, for which the Kd (in general, the concentration at which binding is half-saturated) stood at 33 ± 8 nM.

As for B3, the Kd stood at 88 ± 12 nM.

The molecule B4 registered a Kd of 216 ± 22 nM.

The molecule B5 showed a Kd of 41 ± 9 nM.

For B6, the dissociation constant Kd was 18 ± 2 nM.

B7: the Kd amounted to 33 ± 10 nM.

Molecule B8 registered a dissociation constant (Kd) of 143 ± 31 nM.

Take B9: the Kd was determined as 30 ± 7 nM.

As for B10, the Kd was determined as 46 ± 12 nM.

The molecule B11 returned a Kd of 123 ± 12 nM.

As to B12, the Kd came to 89 ± 13 nM.

Consider B13, for which the Kd was 57 ± 16 nM.

Consider B14, for which the Kd was found to be 32 ± 8 nM.

Molecule B15 had a Kd of 58 ± 31 nM.

The molecule B16 registered a Kd of 62 ± 15 nM.

B17 returned a Kd of 203 ± 43 nM.

B18: the equilibrium dissociation constant (Kd) is 64 ± 15 nM.

Regarding B19, the Kd is 42 ± 9 nM.

B20 showed a Kd of 189 ± 22 nM.

With B21, binding was put at a Kd of 20 ± 7 nM.

B22 returned a Kd of 35 ± 11 nM.

In turn, B23 registered a Kd of 27 ± 11 nM.

For B24, the Kd is 35 ± 5 nM.

Turning to B25, the Kd stood at 380 ± 100 nM.

B26 showed a Kd of 44 ± 21 nM.

Turning to B27, the Kd was 68 ± 48 nM.

The molecule B28 showed a Kd of 365 ± 57 nM.

B29 registered a Kd of 121 ± 31 nM.

B30 had a Kd of 950 ± 680 nM.

Take B31: the Kd was 59 ± 29 nM.

For B32, the Kd was found to be 81 ± 8 nM.

With B33, the Kd came out at 67 ± 6 nM.

In turn, B34 showed a Kd of 84 ± 13 nM.

Turning to B35, the Kd is 56 ± 12 nM.

In turn, B36 returned a Kd of 39 ± 13 nM.

For B37, the Kd was found to be 56 ± 11 nM.

On to B38, for which the Kd was determined as 530 ± 50 nM.

In the case of B39, the Kd was found to be 46 ± 10 nM.

B40 yielded a Kd of 16 ± 6 nM.

In turn, B41 came in with a Kd of 37 ± 5 nM.

On to B42, for which the Kd came out at 73 ± 22 nM.

Regarding B43, the dissociation constant Kd was 38 ± 9 nM.

B44 registered an equilibrium dissociation constant (Kd) of 209 ± 77 nM.

In turn, B45 registered a Kd of 36 ± 9 nM.

Consider B46, for which the Kd worked out at 30 ± 6 nM.

As for B47, the Kd was determined as 15 ± 5 nM.

Consider B48, for which the Kd was 30 ± 8 nM.

As for B49, the Kd was determined as 32 ± 6 nM.

The molecule B50 yielded a dissociation constant (Kd) of 45 ± 12 nM.

In turn, B51 came in with a dissociation constant (Kd) of 46 ± 11 nM.

Consider B52, for which the Kd stood at 187 ± 20 nM.

B53 returned a Kd of 17 ± 6 nM.

For the molecule B54, binding was put at a Kd of 60 ± 28 nM.

In turn, B55 displayed a Kd of 46 ± 8 nM.
